Patent US20210071247

Tests used:
[1] = tested on: AMV reverse transcriptase (Avian myeloblastosis virus); conditions: LNA at GATA and GAAC of 3' 12-mer GATAgcttGAAC of SEQ 2 (mC LNA), PS linkages in the 12-mer; iSp18 spacer and 3' amino in DCP1; read-through efficiency, 42 C; lost above 52.5 C
[2] = molecular target: PrimeScript reverse transcriptase (UniProt P03355); conditions: LNA at GATA and GAAC of 3' 12-mer GATAgcttGAAC of SEQ 2 (mC LNA), PS linkages in the 12-mer; iSp18 spacer and 3' amino in DCP1; read-through efficiency, 42 C
Volcano2G DNA polymerase = Volcano2G DNA polymerase (UniProt P19821); conditions: LNA at GATA and GAAC of 3' 12-mer GATAgcttGAAC of SEQ 2 (mC LNA), PS linkages in the 12-mer; iSp18 spacer and 3' amino in DCP1; first strand read-through efficiency vs DTT1, ddPCR, 42 C
Sequence of Volcano2G DNA polymerase (P19821 whole entry): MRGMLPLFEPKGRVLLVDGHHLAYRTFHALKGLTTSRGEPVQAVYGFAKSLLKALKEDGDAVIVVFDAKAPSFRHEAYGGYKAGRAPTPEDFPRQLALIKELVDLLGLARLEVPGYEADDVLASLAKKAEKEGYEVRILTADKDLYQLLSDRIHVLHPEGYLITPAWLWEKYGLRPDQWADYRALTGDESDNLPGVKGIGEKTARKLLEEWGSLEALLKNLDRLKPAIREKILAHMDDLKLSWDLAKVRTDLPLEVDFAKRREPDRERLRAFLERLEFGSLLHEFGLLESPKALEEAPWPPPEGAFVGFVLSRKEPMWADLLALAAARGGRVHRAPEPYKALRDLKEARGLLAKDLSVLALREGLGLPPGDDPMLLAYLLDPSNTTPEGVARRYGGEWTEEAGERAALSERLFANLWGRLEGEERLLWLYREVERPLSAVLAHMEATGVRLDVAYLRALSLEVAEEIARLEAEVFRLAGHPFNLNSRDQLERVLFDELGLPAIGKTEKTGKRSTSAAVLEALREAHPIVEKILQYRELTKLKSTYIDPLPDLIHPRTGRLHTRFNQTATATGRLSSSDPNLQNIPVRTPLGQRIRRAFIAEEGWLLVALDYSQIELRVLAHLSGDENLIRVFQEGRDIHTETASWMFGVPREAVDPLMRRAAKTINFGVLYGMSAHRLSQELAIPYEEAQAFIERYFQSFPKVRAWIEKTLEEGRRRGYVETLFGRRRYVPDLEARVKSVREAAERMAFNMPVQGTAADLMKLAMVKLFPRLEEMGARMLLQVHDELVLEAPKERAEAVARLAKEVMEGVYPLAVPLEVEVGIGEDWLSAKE

In the case of “GCGTAACTAGACCATAAGCCGATAGCTTGAACCGGACCAGCAAGCTTAGAGATCACGGTATCCAGATTCGCTCATAGTACACAACTGCCTCCGGTTCAA / GCAGTTGTGTACTATGAGCGA [LTT1 template with DCP1_primer1]”, the activity [1] is reported as 0.1%, the activity [2] is reported as 0.1% and the activity (Volcano2G DNA polymerase) is reported as 10%.
